Experimental findings from paper PMC3521685 are described below.

The target of this assay is Myc-Sharp-1-bHLH (UniProt Q99PV5).
Chain of UniProt Q99PV5 (Q99PV5 44-99): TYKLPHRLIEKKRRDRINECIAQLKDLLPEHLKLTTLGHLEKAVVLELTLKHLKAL

Turning to “FLAG-G9a (full-length G9a) (from UniProt Q9Z148 1-1263) (enzyme)”, the inhibition of MyoD activity (pMyog-Luc reporter) by Sharp-1-bHLH amounted to 50%.
